Test results reported in publication PMC2748081 (Reproductive Biology and Endocrinology : RB&E, 2009).

B1: ezrin, recombinant (natural protein, mouse, UniProt P26040 1-586, looked up)
chain: MPKPINVRVTTMDAELEFAIQPNTTGKQLFDQVVKTIGLREVWYFGLQYVDNKGFPTWLKLDKKVSAQEVRKENPVQFKFRAKFYPEDVAEELIQDITQKLFFLQVKDGILSDEIYCPPETAVLLGSYAVQAKFGDYNKEMHKSGYLSSERLIPQRVMDQHKLSRDQWEDRIQVWHAEHRGMLKDSAMLEYLKIAQDLEMYGINYFEIKNKKGTDLWLGVDALGLNIYEKDDKLTPKIGFPWSEIRNISFNDKKFVIKPIDKKAPDFVFYAPRLRINKRILQLCMGNHELYMRRRKPDTIEVQQMKAQAREEKHQKQLERQQLETEKKRRETVEREKEQMLREKEELMLRLQDYEQKTKRAEKELSEQIEKALQLEEERRRAQEEAERLEADRMAALRAKEELERQAQDQIKSQEQLAAELAEYTAKIALLEEARRRKEDEVEEWQHRAKEAQDDLVKTKEELHLVMTAPPPPPPPVYEPVNYHVQEGLQDEGAEPMGYSAELSSEGILDDRNEEKRITEAEKNERVQRQLLTLSNELSQARDENKRTHNDIIHNENMRQGRDKYKTLRQIRQGNTKQRIDEFEAM
notes: ezrin, cDNA by RT-PCR from total RNA of mouse TG cells; primers from the start codon (MPKPINVR) to the stop codon (IDEFEAM); also called ERM protein; source: E. coli DH5α, pCold TF vector, purified (Ni-NTA), tag cleaved with human rhinovirus 3C protease
B2: radixin, recombinant (natural protein, mouse, UniProt P26043 1-583, looked up)
chain: MPKPINVRVTTMDAELEFAIQPNTTGKQLFDQVVKTVGLREVWFFGLQYVDSKGYSTWLKLNKKVTQQDVKKENPLQFKFRAKFFPEDVSEELIQEITQRLFFLQVKEAILNDEIYCPPETAVLLASYAVQAKYGDYNKEIHKPGYLANDRLLPQRVLEQHKLTKEQWEERIQNWHEEHRGMLREDSMMEYLKIAQDLEMYGVNYFEIKNKKGTELWLGVDALGLNIYEHDDKLTPKIGFPWSEIRNISFNDKKFVIKPIDKKAPDFVFYAPRLRINKRILALCMGNHELYMRRRKPDTIEVQQMKAQAREEKHQKQLERAQLENEKKKREIAEKEKERIEREKEELMERLRQIEEQTVKAQKELEEQTRKALELEQERQRAKEEAERLDRERRAAEEAKSAIAKQAADQMKNQEQLAAELAEFTAKIALLEEAKKKKEEEATEWQHKAFAAQEDLEKTKEELKTVMSAPPPPPPPPVIPPTENEHDEQDENSAEASAELSSEGVMNHRSEEERVTETQKNERVKKQLQALSSELAQARDETKKTQNDVLHAENVKAGRDKYKTLRQIRQGNTKQRIDEFEAM
notes: radixin, cDNA by RT-PCR from total RNA of mouse TG cells; primers from the start codon (MPKPINVR) to the stop codon (IDEFEAM); also called ERM protein
B3: moesin, recombinant (natural protein, mouse, UniProt P26041 1-577, looked up)
chain: MPKTISVRVTTMDAELEFAIQPNTTGKQLFDQVVKTIGLREVWFFGLQYQDTKAFSTWLKLNKKVTAQDVRKESPLLFKFRAKFYPEDVSEELIQDITQRLFFLQVKEGILNDDIYCPPETAVLLASYAVQSKYGDFNKEVHKSGYLAGDKLLPQRVLEQHKLNKDQWEERIQVWHEEHRGMLREDAVLEYLKIAQDLEMYGVNYFSIKNKKGSELWLGVDALGLNIYEQNDRLTPKIGFPWSEIRNISFNDKKFVIKPIDKKAPDFVFYAPRLRINKRILALCMGNHELYMRRRKPDTIEVQQMKAQAREEKHQKQMERALLENEKKKRELAEKEKEKIEREKEELMEKLKQIEEQTKKAQQELEEQTRRALELEQERKRAQSEAEKLAKERQEAEEAKEALLQASRDQKKTQEQLASEMAELTARISQLEMARKKKESEAVEWQQKAQMVQEDLEKTRAELKTAMSTPHVAEPAENEHDEQDENGAEASAELRADAMAKDRSEEERTTEAEKNERVQKHLKALTSELANARDESKKTANDMIHAENMRLGRDKYKTLRQIRQGNTKQRIDEFESM
notes: moesin, cDNA by RT-PCR from total RNA of mouse TG cells as the methods say; primers from the start codon (MPKTISVR) to the stop codon (IDEFESM); also called ERM protein; source: E. coli DH5α, pCold TF vector, purified (Ni-NTA), tag cleaved with human rhinovirus 3C protease

Target: T1, heat shock cognate protein 70 (Hsc70), recombinant, full length (mouse, UniProt P63017 1-646)
T1 construct: Hsc70 (heat shock cognate protein 70), cDNA by RT-PCR from total RNA of mouse TG cells; primers 'Hsc70 full length' from the start codon (MSKGPAV) to the stop codon (TIEEVD); some vector residues may remain; also called Full Hsc70; recombinant Hsc70; source: E. coli DH5α, pCold TF vector, purified (Ni-NTA), tag cleaved with human rhinovirus 3C protease
Assay: pull-down; purified recombinant Hsc70 and each ERM protein (20 μg/ml) mixed in PBS, 37°C 2 h, precipitated with anti-Hsc70 antibody on protein G agarose beads or beads only; detection by immunoblotting
Conditions: both partners purified

T1 sequence (P63017 whole entry): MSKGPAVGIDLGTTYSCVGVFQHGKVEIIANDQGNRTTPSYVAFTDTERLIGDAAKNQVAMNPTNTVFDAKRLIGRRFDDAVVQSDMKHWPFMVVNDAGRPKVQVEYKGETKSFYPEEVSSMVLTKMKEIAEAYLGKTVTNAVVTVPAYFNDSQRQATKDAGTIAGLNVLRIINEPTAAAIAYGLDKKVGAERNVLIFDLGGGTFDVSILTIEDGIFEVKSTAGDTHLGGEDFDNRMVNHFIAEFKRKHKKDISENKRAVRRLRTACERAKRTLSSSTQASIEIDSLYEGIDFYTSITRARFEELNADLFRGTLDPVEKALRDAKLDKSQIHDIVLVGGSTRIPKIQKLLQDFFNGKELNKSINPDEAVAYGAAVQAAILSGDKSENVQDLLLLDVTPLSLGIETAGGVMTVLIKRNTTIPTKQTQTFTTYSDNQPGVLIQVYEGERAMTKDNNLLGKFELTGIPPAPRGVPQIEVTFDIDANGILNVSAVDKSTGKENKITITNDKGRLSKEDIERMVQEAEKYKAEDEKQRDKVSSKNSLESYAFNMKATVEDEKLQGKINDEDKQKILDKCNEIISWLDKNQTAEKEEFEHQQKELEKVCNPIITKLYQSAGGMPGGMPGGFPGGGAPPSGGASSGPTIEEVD

Binder	binding result
B1	binds
B2	binds
B3	binds
